The supplement of paper PMC12764529
± gives the half width of the 95% confidence interval.

Assays:
[1] = folding stability dG unfold from trypsin proteolysis; higher = more stable
Summary of the method: (§1)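 Designed mini-proteins with no cysteine and under 80 residues were kept only if AlphaFold2 dimer inter-PAE was above 15. In a PA-tagged cDNA display construct, they were digested with trypsin and chymotrypsin and then sequenced. K50 was inferred by Bayesian fitting of counts, and unfolding free energy was derived per protease or combined against a sequence-predicted unfolded-state K50 and a shared folded-state K50.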

[2] = folding stability dG unfold from chymotrypsin proteolysis; higher = more stable
Summary of the method: as §1

[3] = folding stability dG unfold (combined trypsin and chymotrypsin); higher = more stable
Summary of the method: as §1

Row | Sequence | folding stability dG unfold [1] [kcal/mol] | folding stability dG unfold [2] [kcal/mol] | folding stability dG unfold [3] [kcal/mol]
1 | SAGNMFMVRITFPMPRYEQKRDPDNGKPKMEPKPHPREITIMVPPDSPQARDLANKLAPPGWKVDVFPMSAG [r5_468_TrROS] | 0.0695 ± 0.58 | 1.43 ± 0.22 | 1.09 ± 0.19
2 | SAGNPDKPPKPRTYTLEIEIKLPPGDPDQAKELAHEIAHEIRDLGIKDTEVEYDPGNGRVRISITFTFWSAG [r5_512_TrROS] | 2.8 ± 0.076 | 3.49 ± 0.09 | 3.27 ± 0.28
3 | SAGNPDYIPIPFRVWIMRRVPPGMSKEQAKKNPDMYVMVPIPVKFYIDPDTGRIRVENPDGKTIEFPLPSAG [r5_701_TrROS] | 2.11 ± 0.03 | 3.15 ± 0.07 | 2.68 ± 0.096
4 | SAGNPSLVKETIIPFTLPDGSEVKLTVKTDPSTGKVTMPIETKDEKVKAKAIELAKKIAEELGFPEVGLSAG [r5_99_JUSTAS] | -0.00377 ± 0.15 | 0.241 ± 0.14 | 0.261 ± 0.079
5 | SAGNVVETEEKPVESPLPRKATLTTLTSPTPGVTFRVFTSPENVTTVEVETDGRTETLEPAEAEALLASSAG [r5_157_JUSTAS] | -1.35 ± 0.58 | -0.995 ± 0.3 | < -1
6 | SAGNWKIEIKVKHRRTPDGYYRVTARIQIWDPKNGKPLREIPIEGPFDSPEQAERRARKKAKEILKALSAGG [r19_255_TrROS] | 2.97 ± 0.068 | 2.71 ± 0.044 | 2.74 ± 0.13
7 | SAGNYYRVEVENPSEGKKVTIHIFPNGMINVEHDGGEHWIMIPPDNPDQIEEIASELAPNGYEVDIEPWSAG [r5_791_TrROS] | 0.593 ± 0.11 | 0.856 ± 0.27 | 0.774 ± 0.18
8 | SAGPDLPFDVRLVEVRDMEVRVTPDGRLVVTLPMVGRHPSGFLVRRTIRFEPETDRVEATGEVRPLDESAGG [r19_320_TrMRF] | 0.581 ± 0.062 | 0.804 ± 0.087 | 0.774 ± 0.059
9 | SAGPEPVIRLAREHLERGEVLRITLTGRSGVPRTFLLRPEDILWFFDNLPDPSDIASVDIETYPLGYPPSAG [r5_956_TrMRF] | 2.17 ± 0.028 | 3.352 ± 0.016 | 3.01 ± 0.078
10 | SAGPEVVVFKGIEVEVTEVPPELLENLPPDVIAIPFGDRVLLIRVREYDVARFPPIPPLGANPETGELSSAG [r14_126_TrMRF] | 2.17 ± 0.12 | 2.61 ± 0.11 | 2.44 ± 0.3
11 | SAGPGWIMIRVKIKMRKWKDGKPVRRPIEIPIMAPADGDPEAARRKAEELAEFLAQMYGMEIEDVEIFPSAG [r5_497_TrROS] | 3.07 ± 0.092 | 3.74 ± 0.057 | 3.55 ± 0.065
12 | SAGPITITYDEETGTLTITATVAPGEEVTFKLTFVDEETGVVVTEVEETVTVKEGDTVTITVKVEKLPPSAG [r5_737_TrROS_Hall] | 2.19 ± 0.14 | 3.69 ± 0.13 | 3.34 ± 0.27
13 | SAGPKELAKQIKEIARELARAFHPNGQPMKMEVEIEPVSIDDENGWVRLKVKIRMPNRPVKFNITIPLKSAG [r5_53_TrROS] | 2.04 ± 0.07 | 3.19 ± 0.12 | 2.72 ± 0.27
14 | SAGPKIEIHYTPNGIHLTIELPGEWIWMMIPVPPGEKVKIRLPGNGLEITARPYDDYVMIRIRIPDAPSAGG [r19_384_TrROS] | 3.59 ± 0.083 | 5.3 ± 0.16 | 4.74 ± 0.27
15 | SAGPKITVKKLPDGSYLLLIEVPHEGGPSSRALIPYNPKTGKLELLEIETTHEEIKDKLIELAEELRKSSAG [r5_266_TrMRF] | 1.96 ± 0.08 | 2.8 ± 0.071 | 2.52 ± 0.13
16 | SAGPNKPYKIRVSIMHPGKWREHEIDIDPGEDIEEALDEIMDKLPPNWMIMIHYANGEMIMIPIPPEMISAG [r5_77_TrROS] | 1.72 ± 0.097 | 2.18 ± 0.086 | 2.11 ± 0.16
17 | SAGPPGQPIKPIDITVKPEENTITIKFGDKNLEIPIPPGVEADIWVYPDHIVITIEFPDGKIVTIVLPFSAG [r5_21_TrROS] | 3.73 ± 0.31 | 4.46 ± 0.19 | 4.33 ± 0.26
18 | SAGPPKKREFEIMIQIPLPPGQSAEELKDLLEIPIRLPDGKTIEIRPRAIEVDPGPGQVTVHYKIEVTDSAG [r5_939_TrROS] | 0.179 ± 0.079 | 0.498 ± 0.11 | 0.463 ± 0.099
19 | SAGPPPVKVTVTADYVIEDGKPIVTYTLTFPDGSTTTVTSDPETLVEWLKQHYPDIDVLNFNSGTAPAASAG [r5_25_JUSTAS] | 2.78 ± 0.068 | 4.05 ± 0.047 | 3.77 ± 0.13
20 | SAGPPWEPVPITPEIIDKLADKLNPGFPISLQVYRHPDGRVKISIRNEGSGKEYTLVVDPDGDIEIEPSAGG [r19_70_TrROS] | 3.07 ± 0.19 | 3.522 ± 0.033 | 3.4 ± 0.1
21 | SAGPRPIEIYVDPDGMINIRFPNNGREINIPIPKGAEIEIIELPDDYIVIEIKFGGETREFWIPPEDISAGG [r19_309_TrROS] | 4.04 ± 0.13 | 3.08 ± 0.064 | 3.46 ± 0.076

Row | Sequence | folding stability dG unfold [1] [kcal/mol] | folding stability dG unfold [2] [kcal/mol] | folding stability dG unfold [3] [kcal/mol]
22 | SAGPTFEIVSVEEVDGKTYIRIRLPNGRIVTARITEVKRLGPDGKLYIKVEPGMSEEELKALLPPEVLKSAG [r5_462_TrROS_Hall] | 2.29 ± 0.053 | 2.825 ± 0.02 | 2.63 ± 0.042
23 | SAGPTVRIRFAGEEEIEVEVGEELEIRLPDGSVVRIRVKPDGTVTVTRPDGSEVELEDVDEVEIEVFPASAG [r5_869_TrROS_Hall] | 3.3 ± 0.13 | 3.21 ± 0.076 | 3.4 ± 0.2
24 | SAGPTVRQETFGEKYRIEVEVSPDGTVKVKIVNENGEVTELEGKVEPGKPVVLPFPLDGHVVNVVVLPASAG [r5_237_TrMRF] | 1.54 ± 0.089 | 2.91 ± 0.06 | 2.52 ± 0.13
25 | SAGPVKIQIEPDNGEEFEFRLPPNVSEIETSGDKFIIRFPPGMMFKIEIDEELPPGDTVPIRILDIVPSAGG [r19_274_TrROS] | 1.33 ± 0.057 | 1.26 ± 0.15 | 1.21 ± 0.17
26 | SAGPWIMIPLPPELREIAKKAGMSPDDVETVEIPLKFGDREVKIEVEVMPDDGWIMVRFKSNGKEFMIPSAG [r5_545_TrROS] | 1.55 ± 0.1 | 3.22 ± 0.13 | 2.38 ± 0.29
27 | SAGPWNIMVYDNGEPLEMIEIKGDEITIPLPPGPVRIAIFNPDDNGFVEEEVTPEDGTIEMKIPKGAKISAG [r5_469_TrROS] | -0.792 ± 0.44 | 0.207 ± 0.33 | -0.113 ± 0.38
28 | SAGPYVMIRIKWPGGEELSIPIPGAKITDVERDGDHITFMFDSPPAAEDIKEEIEDHFPGLKIEIQPIDSAG [r5_453_TrROS] | 0.288 ± 0.16 | 1.17 ± 0.2 | 0.881 ± 0.14
29 | SAGPYYVRITVSIYYPGNGAPHQHTIPIKGKTLDDIKDEIRDEIRDHGMKMDPGDEVEIQITDIEVYPGSAG [r5_230_TrROS] | 0.905 ± 0.019 | 1.55 ± 0.06 | 1.28 ± 0.075
30 | SAGQTIRIDEIYPHPDGFLIKIRYPDGKVHTFPIKPNMPITVDGDTITITFPGGPITIPLENMEIEILPSAG [r5_999_TrROS] | 3.28 ± 0.069 | 3.17 ± 0.039 | 3.24 ± 0.064
31 | SAGRIEIDKIEPGKPVRIKIKIEMPDPNGKKRKMDFTRRVRVDPENGMIYIPITMPNGRPIPIMINVKKSAG [r5_743_TrROS] | 0.313 ± 0.23 | 0.552 ± 0.43 | 0.619 ± 0.29
32 | SAGRIEVYQDPNMLRVIEIPLPNGREIVIYRPPGYYHIEIENPNNNKQIPIMIPMEPGDIKKIIKEFINSAG [r5_820_TrROS] | 1.18 ± 0.046 | 1.38 ± 0.081 | 1.33 ± 0.11
33 | SAGRIHVMVFPLDPKDGKWEWVWTFTIDFKPGEKLTLDEIADDIPPKGYMVMIWFTPDTITITIWRRKDSAG [r5_269_TrROS] | 3.87 ± 0.092 | 5.33 ± 0.082 | 4.96 ± 0.12
34 | SAGRIYVDPNMVVIEIKYPDKPMPIIIPFKDPEDQEMAKELVKKIMRYLRNEGLPVEVEVEVFPPGQPVSAG [r5_823_TrROS] | 1.51 ± 0.026 | 2.41 ± 0.026 | 2.11 ± 0.11
35 | SAGRKIPIMFTWPNGDPERMEEIAIEFANYLQPNGLPNVTIKIERKPVKDPENGKRRYVYMVTIEVQPPSAG [r5_49_TrROS] | 1.92 ± 0.043 | 2.89 ± 0.089 | 2.44 ± 0.2
36 | SAGRLTTELGDVKAEVFRIPNLNLSLVVYEYPTSVRTLLATEHGDTVTIHPLTETPLPLPPLSDLKSLSAGG [r19_328_TrMRF] | 0.0381 ± 0.068 | -0.064 ± 0.11 | 0.0233 ± 0.1
37 | SAGSAAIKALLEKHPKPEVIEVTRLPGSGTLVIKVDDEDHVVPTPPGGFTETLTVDENGNVLSVEPHPASAG [r5_329_JUSTAS] | 1.79 ± 0.11 | 1.65 ± 0.064 | 1.74 ± 0.14
38 | SAGSAEEIAKKLAEELRKAGYEVKVKVVEVEKVGDGKVVVRVEIEVTYYDKNGKPVKKERFELTIVLPSAGG [r19_418_TrROS_Hall] | 2.99 ± 0.12 | 4.69 ± 0.27 | 4.25 ± 0.19
39 | SAGSALAAALKLKTYTIKITAPDGTVIELTISYHPSDPEAIKEALAKAGYPPEKLKTENPNLETTEVDASAG [r5_430_JUSTAS] | 1.62 ± 0.071 | 1.83 ± 0.14 | 1.79 ± 0.16
40 | SAGSATVTYDPDTNTVTVTLEGPDTTFTISFPNGEKLEVKATVKPLPDGSYKVLLEVYYPDGSKETFELSAG [r14_675_TrMRF] | 4.13 ± 0.2 | 5.16 ± 0.3 | > 6
41 | SAGSEEEKKAIAEELKEKILKERPELQKKEYTVEVEITPLPDDSIRITVTVTLPSGETETREYVYPNKSAGG [r19_194_JUSTAS] | 2.71 ± 0.26 | 2.95 ± 0.21 | 3 ± 0.24
42 | SAGSITLVFKTPEELEEALKKLAEELGLSEEEVEALKKELEEKFTITYDEETGYVTITLKPELSEEELKSAG [r5_717_TrROS_Hall] | 2 ± 0.13 | 3.71 ± 0.15 | 3.44 ± 0.24
